# In paper PMC5289526, “Crystal Structure and Catalytic Mechanism of CouO, a Versatile C-Methyltransferase from Streptomyces rishiriensis” (PLoS ONE, 2017):
# B1: CouO, C-methyltransferase from Streptomyces rishiriensis (enzyme)
# chain: MKIEPITGSEAEAFHRMGSRAFERYNEFVDLLVGAGIADGQTVVDLCCGSGELEIILTSRFPSLNLVGVDLSEDMVRIARDYAAEQGKELEFRHGDAQSPAGMEDLLGKADLVVSRHAFHRLTRLPAGFDTMLRLVKPGGAILNVSFLHLSDFDEPGFRTWVRFLKERPWDAEMQVAWALAHYYAPRLQDYRDALAQAADETPVSEQRIWVDDQGYGVATVKCFARRAAA
# notes: CouO, SAM-dependent C-methyltransferase of coumermycin A1 biosynthesis, Streptomyces rishiriensis; expected MW 26 kDa; also called CouO-WT; source: purified (last step size exclusion chromatography)
# Target: the molecule itself
# Experiment: SEC; last step of purification; HiLoad 16/60 Superdex 200 pg, 1 ml/min, Hepes pH 7, 100mM NaCl; calibrated with Bio-Rad gel filtration standard
protein,measurement,value
B1,stoichiometry N,2
